Laboratory results as given in US20140087995A1 (published 2014).
Numbered stars: 1 amine (or outer) side, 2 acyl side, 3 side chain; on linkers, the order of the positions; unused ones are H or OH. Bridge positions count the residues as written; N and C are the ends. * marks the point of attachment. C20 diacid = O=C(O)CCCCCCCCCCCCCCCCCCC(=O)*; γGlu = O=C(O)[C@H](CCC(=O)[*:2])N[*:1]

T1: human calcitonin receptor (human, UniProt P30988 25-474)
T1 construct: whole, on cells; Membranes of a BHK tk'ts 13 cell line stably transfected with the human calcitonin receptor; also called hCTR; hCT
T1 sequence (looked up): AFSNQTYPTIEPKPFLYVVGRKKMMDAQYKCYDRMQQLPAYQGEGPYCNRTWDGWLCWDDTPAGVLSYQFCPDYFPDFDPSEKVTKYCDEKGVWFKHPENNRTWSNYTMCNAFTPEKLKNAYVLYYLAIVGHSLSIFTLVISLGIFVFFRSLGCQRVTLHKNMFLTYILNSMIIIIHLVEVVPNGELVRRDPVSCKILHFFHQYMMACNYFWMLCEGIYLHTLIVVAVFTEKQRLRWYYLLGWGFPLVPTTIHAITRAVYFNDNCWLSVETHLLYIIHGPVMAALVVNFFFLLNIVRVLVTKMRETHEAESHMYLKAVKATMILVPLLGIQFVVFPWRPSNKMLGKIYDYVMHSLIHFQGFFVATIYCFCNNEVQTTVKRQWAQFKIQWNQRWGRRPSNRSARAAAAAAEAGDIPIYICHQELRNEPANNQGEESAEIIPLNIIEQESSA

T2: rat calcitonin receptor (rat, UniProt P32214 25-516)
T2 construct: whole, on cells; Membranes of BHK tk'ts 13 cells transiently transfected with the rat calcitonin receptor; also called rCTR; rat calcitonin (a) receptor
T2 sequence (looked up): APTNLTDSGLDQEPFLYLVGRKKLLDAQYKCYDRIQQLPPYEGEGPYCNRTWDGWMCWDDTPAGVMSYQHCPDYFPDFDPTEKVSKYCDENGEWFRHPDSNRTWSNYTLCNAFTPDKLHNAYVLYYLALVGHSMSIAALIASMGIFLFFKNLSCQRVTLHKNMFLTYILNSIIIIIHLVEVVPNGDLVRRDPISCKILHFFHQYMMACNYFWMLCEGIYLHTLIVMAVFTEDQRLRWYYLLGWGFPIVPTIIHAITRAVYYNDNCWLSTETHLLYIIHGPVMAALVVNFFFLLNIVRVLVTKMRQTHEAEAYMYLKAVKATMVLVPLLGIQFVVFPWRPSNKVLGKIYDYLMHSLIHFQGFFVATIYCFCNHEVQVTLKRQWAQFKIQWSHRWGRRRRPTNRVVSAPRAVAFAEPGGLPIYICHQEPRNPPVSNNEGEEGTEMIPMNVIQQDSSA

T3: rat amylin receptor (rat calcitonin receptor + rat RAMP 3) (rat, UniProt P32214 25-516; Q9JJ73 23-147)
T3 construct: whole, on cells; Membranes of BHK tk'ts 13 cells transiently transfected with the rat calcitonin receptor and rat RAMP 3; also called rAmylin-R; rat amylin 3(a) receptor
T3 sequence (looked up) 1: T2 sequence (looked up)
T3 sequence (looked up) 2: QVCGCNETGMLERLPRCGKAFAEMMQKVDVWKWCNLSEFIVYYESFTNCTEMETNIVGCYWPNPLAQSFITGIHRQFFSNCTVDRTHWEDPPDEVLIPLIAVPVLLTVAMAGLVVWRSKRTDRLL

B1: N^α1-[(4S)-4-carboxy-4-(19-carboxynonadecanoylamino)butanoyl]-[Glu14,Arg17,Pro21,Pro26]-h-amylin (peptide)
peptide: {C20 diacid-γGlu}-KCNTATCATQRLAEFLRHSSPNFGAPLSSTNVGSNTY-NH2
modifications: disulfide 2-7
SMILES: CC(C)C[C@H](NC(=O)[C@H](CCCNC(=N)N)NC(=O)[C@H](CCC(N)=O)NC(=O)[C@@H](NC(=O)[C@H](C)NC(=O)[C@@H]1CSSC[C@H](NC(=O)[C@H](CCCCN)NC(=O)CC[C@H](NC(=O)CCCCCCCCCCCCCCCCCCC(=O)O)C(=O)O)C(=O)N[C@@H](CC(N)=O)C(=O)N[C@@H]([C@@H](C)O)C(=O)N[C@@H](C)C(=O)N[C@@H]([C@@H](C)O)C(=O)N1)[C@@H](C)O)C(=O)N[C@@H](C)C(=O)N[C@@H](CCC(=O)O)C(=O)N[C@@H](Cc1ccccc1)C(=O)N[C@@H](CC(C)C)C(=O)N[C@@H](CCCNC(=N)N)C(=O)N[C@@H](Cc1c[nH]cn1)C(=O)N[C@@H](CO)C(=O)N[C@@H](CO)C(=O)N1CCC[C@H]1C(=O)N[C@@H](CC(N)=O)C(=O)N[C@@H](Cc1ccccc1)C(=O)NCC(=O)N[C@@H](C)C(=O)N1CCC[C@H]1C(=O)N[C@@H](CC(C)C)C(=O)N[C@@H](CO)C(=O)N[C@@H](CO)C(=O)N[C@H](C(=O)N[C@@H](CC(N)=O)C(=O)N[C@H](C(=O)NCC(=O)N[C@@H](CO)C(=O)N[C@@H](CC(N)=O)C(=O)N[C@H](C(=O)N[C@@H](Cc1ccc(O)cc1)C(N)=O)[C@@H](C)O)C(C)C)[C@@H](C)O
notes: modifications are with respect to human amylin; also called compound 7
B2: N^α1-[(4S)-4-carboxy-4-(19-carboxynonadecanoylamino)butanoyl]-[Glu14,Arg17,Pro21,Pro27,His34]-h-amylin (peptide)
peptide: {C20 diacid-γGlu}-KCNTATCATQRLAEFLRHSSPNFGAIPSSTNVGHNTY-NH2
modifications: disulfide 2-7
SMILES: CC[C@H](C)[C@H](NC(=O)[C@H](C)NC(=O)CNC(=O)[C@H](Cc1ccccc1)NC(=O)[C@H](CC(N)=O)NC(=O)[C@@H]1CCCN1C(=O)[C@H](CO)NC(=O)[C@H](CO)NC(=O)[C@H](Cc1c[nH]cn1)NC(=O)[C@H](CCCNC(=N)N)NC(=O)[C@H](CC(C)C)NC(=O)[C@H](Cc1ccccc1)NC(=O)[C@H](CCC(=O)O)NC(=O)[C@H](C)NC(=O)[C@H](CC(C)C)NC(=O)[C@H](CCCNC(=N)N)NC(=O)[C@H](CCC(N)=O)NC(=O)[C@@H](NC(=O)[C@H](C)NC(=O)[C@@H]1CSSC[C@H](NC(=O)[C@H](CCCCN)NC(=O)CC[C@H](NC(=O)CCCCCCCCCCCCCCCCCCC(=O)O)C(=O)O)C(=O)N[C@@H](CC(N)=O)C(=O)N[C@@H]([C@@H](C)O)C(=O)N[C@@H](C)C(=O)N[C@@H]([C@@H](C)O)C(=O)N1)[C@@H](C)O)C(=O)N1CCC[C@H]1C(=O)N[C@@H](CO)C(=O)N[C@@H](CO)C(=O)N[C@H](C(=O)N[C@@H](CC(N)=O)C(=O)N[C@H](C(=O)NCC(=O)N[C@@H](Cc1c[nH]cn1)C(=O)N[C@@H](CC(N)=O)C(=O)N[C@H](C(=O)N[C@@H](Cc1ccc(O)cc1)C(N)=O)[C@@H](C)O)C(C)C)[C@@H](C)O
notes: modifications are with respect to human amylin; also called compound 17
B3: N^α1-[(4S)-4-carboxy-4-(19-carboxynonadecanoylamino)butanoyl]-[Glu14,Arg17,Pro21,Pro27,Arg35]-h-amylin (peptide)
peptide: {C20 diacid-γGlu}-KCNTATCATQRLAEFLRHSSPNFGAIPSSTNVGSRTY-NH2
modifications: disulfide 2-7
SMILES: CC[C@H](C)[C@H](NC(=O)[C@H](C)NC(=O)CNC(=O)[C@H](Cc1ccccc1)NC(=O)[C@H](CC(N)=O)NC(=O)[C@@H]1CCCN1C(=O)[C@H](CO)NC(=O)[C@H](CO)NC(=O)[C@H](Cc1c[nH]cn1)NC(=O)[C@H](CCCNC(=N)N)NC(=O)[C@H](CC(C)C)NC(=O)[C@H](Cc1ccccc1)NC(=O)[C@H](CCC(=O)O)NC(=O)[C@H](C)NC(=O)[C@H](CC(C)C)NC(=O)[C@H](CCCNC(=N)N)NC(=O)[C@H](CCC(N)=O)NC(=O)[C@@H](NC(=O)[C@H](C)NC(=O)[C@@H]1CSSC[C@H](NC(=O)[C@H](CCCCN)NC(=O)CC[C@H](NC(=O)CCCCCCCCCCCCCCCCCCC(=O)O)C(=O)O)C(=O)N[C@@H](CC(N)=O)C(=O)N[C@@H]([C@@H](C)O)C(=O)N[C@@H](C)C(=O)N[C@@H]([C@@H](C)O)C(=O)N1)[C@@H](C)O)C(=O)N1CCC[C@H]1C(=O)N[C@@H](CO)C(=O)N[C@@H](CO)C(=O)N[C@H](C(=O)N[C@@H](CC(N)=O)C(=O)N[C@H](C(=O)NCC(=O)N[C@@H](CO)C(=O)N[C@@H](CCCNC(=N)N)C(=O)N[C@H](C(=O)N[C@@H](Cc1ccc(O)cc1)C(N)=O)[C@@H](C)O)C(C)C)[C@@H](C)O
notes: modifications are with respect to human amylin; also called compound 16
B4: N^α1-[(4S)-4-carboxy-4-(19-carboxynonadecanoylamino)butanoyl]-[Glu14,Arg17,Pro21,Pro27,His35]-h-amylin (peptide)
peptide: {C20 diacid-γGlu}-KCNTATCATQRLAEFLRHSSPNFGAIPSSTNVGSHTY-NH2
modifications: disulfide 2-7
SMILES: CC[C@H](C)[C@H](NC(=O)[C@H](C)NC(=O)CNC(=O)[C@H](Cc1ccccc1)NC(=O)[C@H](CC(N)=O)NC(=O)[C@@H]1CCCN1C(=O)[C@H](CO)NC(=O)[C@H](CO)NC(=O)[C@H](Cc1c[nH]cn1)NC(=O)[C@H](CCCNC(=N)N)NC(=O)[C@H](CC(C)C)NC(=O)[C@H](Cc1ccccc1)NC(=O)[C@H](CCC(=O)O)NC(=O)[C@H](C)NC(=O)[C@H](CC(C)C)NC(=O)[C@H](CCCNC(=N)N)NC(=O)[C@H](CCC(N)=O)NC(=O)[C@@H](NC(=O)[C@H](C)NC(=O)[C@@H]1CSSC[C@H](NC(=O)[C@H](CCCCN)NC(=O)CC[C@H](NC(=O)CCCCCCCCCCCCCCCCCCC(=O)O)C(=O)O)C(=O)N[C@@H](CC(N)=O)C(=O)N[C@@H]([C@@H](C)O)C(=O)N[C@@H](C)C(=O)N[C@@H]([C@@H](C)O)C(=O)N1)[C@@H](C)O)C(=O)N1CCC[C@H]1C(=O)N[C@@H](CO)C(=O)N[C@@H](CO)C(=O)N[C@H](C(=O)N[C@@H](CC(N)=O)C(=O)N[C@H](C(=O)NCC(=O)N[C@@H](CO)C(=O)N[C@@H](Cc1c[nH]cn1)C(=O)N[C@H](C(=O)N[C@@H](Cc1ccc(O)cc1)C(N)=O)[C@@H](C)O)C(C)C)[C@@H](C)O
notes: modifications are with respect to human amylin; also called compound 18
B5: N^α1-[(4S)-4-carboxy-4-(19-carboxynonadecanoylamino)butanoyl]-[Glu14,Arg17,Pro21,Pro27,Pro29]-h-amylin (peptide)
peptide: {C20 diacid-γGlu}-KCNTATCATQRLAEFLRHSSPNFGAIPSPTNVGSNTY-NH2
modifications: disulfide 2-7
SMILES: CC[C@H](C)[C@H](NC(=O)[C@H](C)NC(=O)CNC(=O)[C@H](Cc1ccccc1)NC(=O)[C@H](CC(N)=O)NC(=O)[C@@H]1CCCN1C(=O)[C@H](CO)NC(=O)[C@H](CO)NC(=O)[C@H](Cc1c[nH]cn1)NC(=O)[C@H](CCCNC(=N)N)NC(=O)[C@H](CC(C)C)NC(=O)[C@H](Cc1ccccc1)NC(=O)[C@H](CCC(=O)O)NC(=O)[C@H](C)NC(=O)[C@H](CC(C)C)NC(=O)[C@H](CCCNC(=N)N)NC(=O)[C@H](CCC(N)=O)NC(=O)[C@@H](NC(=O)[C@H](C)NC(=O)[C@@H]1CSSC[C@H](NC(=O)[C@H](CCCCN)NC(=O)CC[C@H](NC(=O)CCCCCCCCCCCCCCCCCCC(=O)O)C(=O)O)C(=O)N[C@@H](CC(N)=O)C(=O)N[C@@H]([C@@H](C)O)C(=O)N[C@@H](C)C(=O)N[C@@H]([C@@H](C)O)C(=O)N1)[C@@H](C)O)C(=O)N1CCC[C@H]1C(=O)N[C@@H](CO)C(=O)N1CCC[C@H]1C(=O)N[C@H](C(=O)N[C@@H](CC(N)=O)C(=O)N[C@H](C(=O)NCC(=O)N[C@@H](CO)C(=O)N[C@@H](CC(N)=O)C(=O)N[C@H](C(=O)N[C@@H](Cc1ccc(O)cc1)C(N)=O)[C@@H](C)O)C(C)C)[C@@H](C)O
notes: modifications are with respect to human amylin; also called compound 37

Target: T1, human calcitonin receptor
Assay: IC50 at hCTR divided by IC50 at hAmylin-R (reference)
How it was run: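 IC₅₀ values were derived by one-site competition analysis of SPA counts. Cell membranes (35 ng/μL) with SPA beads were incubated with test compounds for 120 min at 25° C in Hepes buffer, pH 7.4, containing CaCl2, MgCl₂, OA and Tween20.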

Row | Binder | Ratio hCT/hAmylin binding
1 | B1 | 16.5
2 | B2 | 12.5
3 | B3 | 19.1
4 | B4 | 9.2
5 | B5 | 2.3

Target: T2, rat calcitonin receptor
Assay: IC50 at rCTR divided by IC50 at rAmylin-R (reference)

Row | Binder | Ratio rCT/rAmylin binding
6 | B1 | 42
7 | B2 | 35.9
8 | B3 | 45.6
9 | B4 | 27.3
10 | B5 | 14.3

Target: T3, rat amylin receptor (rat calcitonin …)
Assay: SPA competition vs 125I-rat amylin, membranes with rat CTR + rat RAMP3 (Assay VI)

Row | Binder | IC50 [nM]
11 | B1 | 1.12
12 | B2 | 2.71
13 | B3 | 1.21
14 | B4 | 0.476
15 | B5 | 0.514

Target: T2, rat calcitonin receptor
Assay: SPA competition vs 125I-calcitonin, membranes with rat CTR (Assay VIII)

Row | Binder | IC50 [nM]
16 | B1 | 47.2
17 | B2 | 97.2
18 | B3 | 55.2
19 | B4 | 13
20 | B5 | 7.35
